One substance from paper PMC10410066 can be followed below.

This assay concerns the target inhibitor of nuclear factor kappa B kinase subunit beta (IKBKB), FLAG-tagged (UniProt O14920). Description: TR-FRET protein-protein interaction assay (2B7-Tb/anti-FLAG-D2). Conditions: peak of the lysate titration curve (mutant peak at about 3 ug/well, WT peak at about 5 ug/well); HEK293T lysates; parent: est. 0.30; read off a plot.

“N571 Q55 HTT (N-terminal huntingtin fragment 1-571 with 55 glutamines) S13A; S16A”: the response (Fluorescence Ratio (665/615)) was 0.26.
